This note sets out measurements from publication PMC2275136.

In the data set the target is p53 (purified recombinant) (UniProt P04637 1-393). Nature of the data set: EMSA. A general note: A gel shift assay detects complexes by their altered migration in electrophoresis.
Chain of p53 (purified recombinant) (P04637 whole entry): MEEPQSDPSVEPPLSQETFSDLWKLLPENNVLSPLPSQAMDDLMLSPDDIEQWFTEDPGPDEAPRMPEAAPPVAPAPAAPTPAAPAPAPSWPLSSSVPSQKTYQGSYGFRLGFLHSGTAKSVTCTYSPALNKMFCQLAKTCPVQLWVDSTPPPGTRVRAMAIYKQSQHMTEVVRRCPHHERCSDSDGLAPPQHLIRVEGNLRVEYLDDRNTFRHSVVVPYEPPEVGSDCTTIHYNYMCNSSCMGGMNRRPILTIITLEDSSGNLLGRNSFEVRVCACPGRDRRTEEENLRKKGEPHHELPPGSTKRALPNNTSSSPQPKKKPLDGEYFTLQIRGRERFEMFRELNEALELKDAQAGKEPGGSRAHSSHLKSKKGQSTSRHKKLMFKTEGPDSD

B1: p21 promoter p53 consensus duplex (dsDNA)
DNA 1: TTGAACATGTCCCAACATGTTGA
DNA 2: TCAACATGTTGGGACATGTTCAA
Consider B1, for which the binding result is given as “binds”.
